This series can be described thus: yeast display, Sf9 membrane polyspecificity reagent, FACS + sequencing; frameworks hold sequencing errors. The essentials:
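Nanobodies from a synthetic yeast display library (Saccharomyces cerevisiae BJ5465), induced 36–48 hours with galactose, were stained 1 hour at 4 °C with 10% biotinylated, detergent-solubilized Sf9 membrane reagent, enriched on streptavidin microbeads, then FACS-sorted. Anti-HA (expression) and streptavidin (reagent binding) fluorescence set low and high (top ~1%) gates. Polyreactivity labels come from the gate of origin. Genes were colony-PCR amplified, MiSeq 2 × 250 sequenced and filtered by CDR length.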
With “QVQLVESGGGLVQAGGSLRLSCAASGRTYRYAMGWYRQAPGNERELVAAIRWSGGSTYYADSVKGRFTISRDNAKNTVYIQMNSLKPEDTAVYYCAADSYATRYYYWGQGTQVTVSS”, the “polyreactivity (PSR sort gate)” value is recorded as “high polyreactivity”.

As to “QVQLEESGGGIVQAGGSLRLSCAASGSTFVLNAMGWYRKAPGKERELVAAITRDGRTYYADSVKGRFTISRDNAKNTVYLQMNSLKPEDTAVYYCARPARYSYGDGYWGQGTLVTVSS”, the “polyreactivity (PSR sort gate)” value was “low polyreactivity”.

Consider “QVQLVESGAGIVQAGGSLRLSCAASGSIFRVYAMGWYRQAPWKERELVAAISRTGGSTYYADSVKGRFTISRDNAKNTVYLPMNSLQPEDTAVDYCAARQRYVGYYYWGQGTQVTVSS”, for which the “polyreactivity (PSR sort gate)” value was “high polyreactivity”.

With “QVQLVESGGGLVQAGGSLRLSCAASGRTFQYYAMGWYRQAPGKERELVATISYSGGSTSYADSVKGRFTISRDNAKNTVYLQMNSLKPEDTAVYYCAADYYYGDALSPSYPHWDFYYWGQGTQVTVSS”, the “polyreactivity (PSR sort gate)” value is “low polyreactivity”.

Turning to “QVQLVESGGGLVQAGGSLRLSCAASGGTFRFNAMGWYRQAPGKERELVAAISRGGSTNYADSVKGRFTISRDNAKNTVYLQMNSLKPEDTAVYYCAADTYHPRFWYDYWGQGTQVTVSS”, the “polyreactivity (PSR sort gate)” value is listed as “low polyreactivity”.

For the sequence “QVQLVESGGGLVQAGGSLRLSCAASGRIFPRNAMGWYRQAPGKERELVAAISSGGGGTYYADSVKGRFTISRDNAKNTVYLQMNSLKPEDTAVYYCNAAYTYVTAWYYYWGQGTQVTVSS”, the “polyreactivity (PSR sort gate)” value is on record as “high polyreactivity”.

“QVQLVESGGGLVQAGGSLRLSCAASGRTFKNYAMGSYRQAPGKERELVAAISWRSGSTNYADSVKGRCTISRDNAKNTVYLQMNSLKPEDTAVYYCARKRRISGWSQFTSYADFDYWGQGSQVTVSS”: the “polyreactivity (PSR sort gate)” value is “low polyreactivity”.

With “QVQLVESGGGFVQAGGSLRLSCAACGRIFATYAMRWYRQAPGKERELVASFSYSDGSTYADSVKGRFTISRDNAKNTVYLQMNSLKPEDTAVYYCAAERLTHWGAFAAYDYWGQGTQVTVSS”, the “polyreactivity (PSR sort gate)” value is “low polyreactivity”.

For the sequence “QVQLVESGGGLVQAGGSLRLSCAASGRTFGDYAMGWYRQAPGKERELVAAISKSGGITYYADSVKGRFTISRDNAKNTVYLQMNSLKPEDTAVYYCNADGSPFYYSGYDYWGQGTQVTVSS”, the “polyreactivity (PSR sort gate)” value was “high polyreactivity”.

With “QVQLVESGGGLVQAGGSLRLSCAASGRIFLVYAMGGSRQAPGKDRELVAAISWSTGSTYYADSVKGRFTISRDNAKNTVYLQMNSLKPEDTAVYYCAAEPELDEYEHDYWGQGTQVTVSS”, the “polyreactivity (PSR sort gate)” value is listed as “low polyreactivity”.

With “QVQLVESGGGLVQAGGSLRLSCAASGSTFYANVMGWYRQAPGKERELVAAIRWSGSSTYYADSVKGRFTISRDNAKNTVYLQMNSLKPEDTAVYYCNARYDFSYDYWGQGTQVTVSS”, the “polyreactivity (PSR sort gate)” value is recorded as “low polyreactivity”.

Regarding “QVQLVESGGGLVQAGGSLRLSCAASGGTFGYNVMGWYRQAPGKERELVAAISYSVGGTYYADSVKGRFTISRDNAMNTVYLQMNSLKPEDTAVYYCAATGRRRTYSEYEYWGQGTQVTVSS”, the “polyreactivity (PSR sort gate)” value is reported as “high polyreactivity”.

Turning to “QVQLVESGGGLVQAGGSLSLTCAASGITFYLYAMGWDIQAPGKERELVAAISSGSRTTYADSVKGRFTISRDNEKNTVYLQMNSLKPEDTAFYYCAAAYWNWGYYYSYDYWGQGTQVTVSS”, the “polyreactivity (PSR sort gate)” value was “high polyreactivity”.

In the case of “QVQIVESGGGLVQAGGSLRLSCAASGSTFYGYAMGWYRQAPGKERELVAVINYRGDRTYFADSVKGRFTISRDNAKNTVYLQMNSLKPEDTAVYYCAARYRVYYLAGYEYWGQGTQVTVSS”, the “polyreactivity (PSR sort gate)” value is recorded as “high polyreactivity”.

Take “QVQLVESGGGLVQAGGSLRLSCAASGSIFRYAMGWYRQAPGKEREFVAAITSRGGTTYYADSVKGRFTISRDNAKNTVYLLMNSLKPEDTAVYYCYAHRYATAGSWVVRHDYWGQGTQGTVSS”: the “polyreactivity (PSR sort gate)” value is recorded as “high polyreactivity”.

With “QVQLVESGGGLVQAGGSLRFSCAACGMTIWYYGMGSYRQAPGKERELLAAISKTGGRTYDADSVKGRFTISRDNAKNTVYLQMNRLKPEDTAVYNCNARYLLVSRYWENDYWGQATQVTVSS”, the “polyreactivity (PSR sort gate)” value was “low polyreactivity”.

“QVQLVESGGGLVQAGGSLRLSCAASGRTSRDYAMGWYRQAPGKERELVAAIRWRGVSTYYADSVKGRFTISRDNAKNTVYLQMNSLKPEDTAVYYCAKRESVSTSAGKGAMDSWGQGTQVTVSS”: the “polyreactivity (PSR sort gate)” value is listed as “high polyreactivity”.

With “QVQLVESGGGVVQAGGSIRLSCAASGRIFTSNAMGWNRQAPGKETELDAAISGSGGRTYYADSVKGRFTISRDNAKNTVYLQMNSLKPEDTAVYDCNARYYTSGIAYSYYYWGQGTQGTVSS”, the “polyreactivity (PSR sort gate)” value was “high polyreactivity”.

With “QVQLVESGGGLVQAGGSLRLSCAASGRIFFKNAMGWYRQAPGKDRELVAAISWSGGRTYYADSVKGRFTISRDNAKNTVYLQMNSLKPEDSAVYYCATRYHVGKYLYGYWGQGTQVTVSS”, the “polyreactivity (PSR sort gate)” value is “high polyreactivity”.

As for “QVQLVESGGGLVQAGGSLRLSCAASGSIFSPYAMGWYRQAPGKERELVAAITWSGGSTYYADSVKGRFTISRDNAKNTVYLQMNSLKPEDTAVYYCAATYYVNAWRYYYWGQGTQVTVSS”, the “polyreactivity (PSR sort gate)” value is reported as “high polyreactivity”.

On to “QVQLVESGGGLVQAGGSLRLRCAASGSIFFFYAMGWYRQAPGKERELVAAISKSPSSTYYADSVKGRFTISRDNAKNTVYLQMNSLKPEDTAVYYCNNGYSGIQYYYWGHGTQVTVSS”, for which the “polyreactivity (PSR sort gate)” value is “low polyreactivity”.

Consider “QVQLVESGGGLVQAGGSLRLSCAASGSTIWSYAMGWYRQAPGKERELVASITWSGGSTYADSVKGRFTISRDNAKNTVYLQMNSLKPEDTAVYYCARESTLTYYSDDFDYWGQGTQVTVSS”, for which the “polyreactivity (PSR sort gate)” value is reported as “low polyreactivity”.

Take “QVQLVESGGGLVQAGGSLRLSCAASGIIFWYYAMGWYRQAPGKERELVAAISSGGGTNYADSVKGRFTISRDNAKNTVSLQMNSLKPEDTAVYYCNADDNPVWEYDYWGQGTQVTVSS”: the “polyreactivity (PSR sort gate)” value is “low polyreactivity”.

With “QVQLVESGGGVVQAGGSLRLSCAASGRTFNYYAMGWYRQAPGKERELVAAISRTATTYYADSVKGRFTISRDNAKNTVYLQMNSLKPEDTAVYYCAARSYSSSFSYRHYYWGQGTQVTVSS”, the “polyreactivity (PSR sort gate)” value is “high polyreactivity”.

Consider “QVQLVESGGGLVQAGGSLRLSCAASGSIFIPNAMGWYRQAPGKERELVAAISLSDTTTYYADSVKGRFTISRDNAKNTVYLKMNSLKPEDTAVYYCAADYWFYPTSPDMDYLGQGTQVTVSS”, for which the “polyreactivity (PSR sort gate)” value is “low polyreactivity”.

For “QVQLVESGGGLVQAGGSLRLSCAASGRIFATNAMGLYRPAPGKERELVATITRSAGRTYYADSVKGRFTISRDNAKNTVYLQMNSLKPEDTAVYYCAASYWDTEPGYREYVYWGQGTQVTVSS”, the “polyreactivity (PSR sort gate)” value was “low polyreactivity”.

“QVQLVESGGGLVQAGGSLRLSCAASGSIFSGWYTMGWYRQAPGKERELVASISISTTDTYYADSVKGRFTISRDNAKNTVYLQMNSLKPEDTAVYYCADEVTSFSFGGDATEYYWGQGTQVTVSS”: the “polyreactivity (PSR sort gate)” value is “low polyreactivity”.

“QVQLVESGGGIVQAGGSLRLSCAASGSIFTHYAMGWDRQAPGKERELVATISSTGSTDYADSVKGRFTISRDNAKNTVFLQINSLKPEDTAVYYCAAVSFYKTRATYYFWYDYWGQGTQVTVSS”: the “polyreactivity (PSR sort gate)” value is given as “low polyreactivity”.

For “QVQLVESGVGLVQAGGSLRLSCAASGSTFLTNVMGWYRQAPGKERELVAAITIGGSTNYADSVKGRFTISRDNAKNSVYLQMNSLKPEDTAVYYCATDIRRKPRYVDYEYWGQGTQVSVSS”, the “polyreactivity (PSR sort gate)” value is “low polyreactivity”.

Take “QVQLVESGGGLVQAGGSLRLSCAATGRIFKTYAMGWYRQAPGKERELVAAISWTVVSTHYADSVKGRFTISRDNAKNTVYLQMNSLKPEDTAVYYCNADTPLRHRTWNRKVTDFEYDYWGQGTQVTVSS”: the “polyreactivity (PSR sort gate)” value was “low polyreactivity”.

Take “QVQLVESGGGLVQAGGSLRLSCAASGIIFYRYAMGWYRQAPGKERELVAAINTSGGRTYYADSVKGRFTISRDNAKNTVYLQMNSLKPEDTAVYYCAAYYSPVGFQYDYWGQGTQVTVSS”: the “polyreactivity (PSR sort gate)” value is “high polyreactivity”.

With “QVQLVESGGGLVQAGGSLRLSCAAYGFTCPLNAMGWYRQAPGKERELVAAISGSSGSTYYADSVKGRFTISRDNAKNTVYLQMNSLKPEDTAVYYCAKKYAWRYYYWGQGTQVTVSS”, the “polyreactivity (PSR sort gate)” value is “high polyreactivity”.

For the sequence “QVQLVESGGGLVQAGGSLRLSCAPSGRIFSINAMGWYRQAPGKERELVAAITSGGSTKYADSVKGRFTISRDNAKNTVYLQMNSLKPEDTAVYYCAAAPGYLYWKVDYNYWGQGTQVTVSS”, the “polyreactivity (PSR sort gate)” value is listed as “high polyreactivity”.

“QVQLVESGGGLVQAGGSLRLSCAAYGSIFWSYAMGWYIQAPGKERELVAGITRSGGSTYYSDSVKGRFTISRDNAKNPVYLQMISLKPEDTAVYYCNKAFGGDKYSGSYEYWGQGNQVTVSS”: the “polyreactivity (PSR sort gate)” value is reported as “high polyreactivity”.

Regarding “QVQLVESGGGLVQAGGSLRLSCAASGFTIYWYAMGWYRQAPGKERELVAAITRSGSSTYYADSVKGRFTISRDNAKNTVYVQMNSLKPEDTAVYYSAALPYTPYYDAYDYWGQGTQVTVSS”, the “polyreactivity (PSR sort gate)” value is given as “high polyreactivity”.

“QVQLVESGGGLVQAGGSLRLSCAASGSIFSTYAMGWYRQAPGKERELVAAISTRGGRTYYADSVKGRFTISRDNAKNTVYLQMNSLKPEDTAVYYCAAKRGKTYQRFDYWGQGTQVTVSS”: the “polyreactivity (PSR sort gate)” value is on record as “high polyreactivity”.

On to “QVQLVESGGGLVQAGGSLRLSCAASGSIFGYNAMGWYRQAPGKEREFVAAIRWSSGSTYYADSVKGRFTISRDNAKNTVYLQMNSLKPEDTAVYYCATRQTYLYWGQGTQVTVSS”, for which the “polyreactivity (PSR sort gate)” value is listed as “high polyreactivity”.

As for “QVQLVESGGAFVQAGGSLRLSCAASGIIFERNAMGWYRQAPGNERELVAAISGGGSTNYADSVKGRFTISRDNEMNTVYLQRISLKPDDTAVYYCAGKAARRRGYYYWGQGTQVTVSS”, the “polyreactivity (PSR sort gate)” value was “high polyreactivity”.

“QVQLVESGGGLVQAGGSLRLSCAASGFIFRYYALGWYRQAPGKERELVAAIDYSGGSTNYADSVKGRFTISRDNAKNTVYLQMNSLKPEDTGVYYCATVSDNRYYYWGQGTQVTVSS”: the “polyreactivity (PSR sort gate)” value was “low polyreactivity”.

As for “QVQMQESGGGLEQAGGSLRLSCAASGNISGFGYMGWYRQAPGKEREFVAAISYGTSTYYADSVKGLFTISRDNAKNTVYLQINSLKPEDTAVFYCAALCLISKHHHYWGEGTQVTVSS”, the “polyreactivity (PSR sort gate)” value is on record as “high polyreactivity”.

In the case of “QVQLVESGGGLVQAGGSLRLSCAASGSTFTDYDMGWYRQAPGKERELVAAITSGGSTNYADSVKGRITISRDNAKNTVYLQMNSLKPEDTAVYYCAAADADRKYDYWGQGTQVTVSS”, the “polyreactivity (PSR sort gate)” value is listed as “low polyreactivity”.

Source of the values: the nanobody polyreactivity screen of Harvey et al. (2022).
